Experiments:
[1] = system: N#CCc1ccccc1; assay: ammonia release, Michaelis-Menten; type: biochemical, Alcaligenes faecalis; settings: 50 mM buffer pH 7.5, 10% methanol, 30 °C, 0.5-30 mM substrate
Description: (§1) ammonia release, Michaelis-Menten on Arylacetonitrilase from Alcaligenes faecalis (NitAF)

[2] = molecular target: T1, Arylacetonitrilase from Alcaligenes faecalis (NitAF) (Alcaligenes faecalis, UniProt P20960); assay: ammonia release, Michaelis-Menten; type: biochemical; settings: 50 mM buffer pH 7.5, 10% methanol, 30 °C, 0.5-30 mM substrate
T1 construct: full-length with C-terminal His6 tag (tag kept), vector pTrc99A-derived, E. coli BL21(DE3), Ni-NTA; 1071 bp, 357 amino acids printed; subunit about 32 kDa by SDS-PAGE, native about 460 kDa (homo-oligomer)
Description: as §1

T1 sequence (P20960 whole entry): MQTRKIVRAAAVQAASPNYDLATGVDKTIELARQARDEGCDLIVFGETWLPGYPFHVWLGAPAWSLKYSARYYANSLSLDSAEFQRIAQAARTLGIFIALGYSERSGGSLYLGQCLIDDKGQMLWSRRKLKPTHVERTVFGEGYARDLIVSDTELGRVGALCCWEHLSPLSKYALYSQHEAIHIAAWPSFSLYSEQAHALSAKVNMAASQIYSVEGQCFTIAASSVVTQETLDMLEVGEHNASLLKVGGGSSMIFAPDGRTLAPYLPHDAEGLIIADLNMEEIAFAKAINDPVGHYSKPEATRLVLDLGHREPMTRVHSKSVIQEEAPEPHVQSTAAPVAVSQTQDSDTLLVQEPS

| Compound | Km [1] [µM] | kcat [1] [s⁻¹] | kcat/Km [1] [M⁻¹ s⁻¹] | Km [2] [µM] |
| --- | --- | --- | --- | --- |
| Arylacetonitrilase from Alcaligenes faecalis (NitAF) (Alcaligenes faecalis; F140G) | 24100 ± 2200 | – | – | – |
| Arylacetonitrilase from Alcaligenes faecalis (NitAF) (Alcaligenes faecalis; F140A) | 4200 ± 410 | 15.6 ± 1.2 | 3710 | – |
| Arylacetonitrilase from Alcaligenes faecalis (NitAF) (Alcaligenes faecalis; F140L) | 2130 ± 210 | 38.8 ± 3.8 | 18200 | – |
| Arylacetonitrilase from Alcaligenes faecalis (NitAF) (Alcaligenes faecalis; F140H) | 890 ± 100 | 63.5 ± 4.7 | 71400 | – |
| Arylacetonitrilase from Alcaligenes faecalis (NitAF) (Alcaligenes faecalis; F140W) | 1450 ± 120 | 143 ± 12 | 98600 | – |
| Arylacetonitrilase from Alcaligenes faecalis (NitAF) (Alcaligenes faecalis; F140V) | 2950 ± 320 | 25 ± 2.4 | 8480 | – |
| N#CCc1ccccc1 [phenylacetonitrile] | – | – | – | 860 ± 70 |
